Values quoted from earlier work, collected in US20020119915A1, “Nutritional intervention composition containing a source of proteinase inhibitor extending post meal satiety” (priority 1999, published 2002).

System: humans
Details: injection, 1981 study

B1: Cholecystokinin (peptide, UniProt P06307 21-115, looked up)
Cholecystokinin: QPVPPADPAGSGLQRAEEAPRRQLRVSQRTDGESRAHLGALLARYIQQARKAPSGRMSIVKNLQNLDPSHRISDRDYMGWMDFGRRSAEEYEYPS
modifications: Cholecystokinin
With B1 as the molecule, how does the “Decrease of food intake” value read?
The value was 16%.
